Data as given in paper PMC3810769 (Molecular Biology of the Cell, 2013).
Where two headings read alike, the source gives them in different places.

T1: nebulin SH3 domain (UniProt P20929 8466-8525)
T1 sequence (looked up): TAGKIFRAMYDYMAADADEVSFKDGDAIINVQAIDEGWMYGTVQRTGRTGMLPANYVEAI

T2: nebulette SH3 domain (residues 955-1014) (human (by the printed UniProt entry …, UniProt O76041 955-1014))
T2 sequence (looked up): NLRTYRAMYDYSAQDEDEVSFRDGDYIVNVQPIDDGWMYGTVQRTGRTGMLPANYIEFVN

T3: nebulette SH3 domain fused to glutathione S-transferase (human (by the printed UniProt entry …, UniProt O76041 954-1014))
T3 sequence (looked up): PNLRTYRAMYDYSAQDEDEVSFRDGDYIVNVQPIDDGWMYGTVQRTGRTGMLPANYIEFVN


What was measured:
nebulin SH3 domain [1] = biological target: T1, nebulin SH3 domain; test: ITC
[2] = biological target: T2, nebulette SH3 domain (residues 955-1014); test: ITC
nebulin SH3 domain [3] = biological target: T1, nebulin SH3 domain; test: ITC; remark: listed apart in the source
[4] = biological target: T3, nebulette SH3 domain fused to …; test: peptide or protein array

Kd (nebulin SH3 domain [1]) | Kd [2] | dH [2] | stoichiometry N [2] | Kd (nebulin SH3 domain [3]) | dH (nebulin SH3 domain [3]) | stoichiometry N (nebulin SH3 domain [3]) | binding result [4] | Binder
9.3 µM | 12.9 µM | -8.46 kcal/mol | 1.12 | 9.61 µM | -9.43 kcal/mol | 1.02 | – | PPPTLPKPKLPKH [synthetic 13-mer XIRP2 peptide PPPTLPKPKLPKH]
– | – | – | – | – | – | – | binds | GVLPPPTLPKPK [XIRP2 PR6 peptide GVLPPPTLPKPK]
